What is called Kd is the free concentration of one partner at which half of the binding sites on the other are occupied at equilibrium, for simple one-to-one binding. Lower therefore signals tighter binding. The term koff denotes the first-order rate constant of dissociation. The term kon denotes a measure of how fast the partners come together. Read a high kon as faster complex formation.

T1: human MOG (hMOG) expressed on HEK293, Expi293F or L929 cells (human, UniProt Q16653 30-247)
T1 construct: also called hMOG/HEK293; hMOG/HEK293F
T1 chain: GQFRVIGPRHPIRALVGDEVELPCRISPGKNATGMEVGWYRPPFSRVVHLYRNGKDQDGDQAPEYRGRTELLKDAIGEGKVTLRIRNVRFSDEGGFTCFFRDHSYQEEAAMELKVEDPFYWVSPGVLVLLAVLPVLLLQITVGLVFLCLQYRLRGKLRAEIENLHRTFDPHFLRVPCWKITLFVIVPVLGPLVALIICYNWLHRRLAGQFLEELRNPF

B1: AVM IgG4PE(R409K)_MOG01dscFv7 antibody (bispecific antibody)
heavy: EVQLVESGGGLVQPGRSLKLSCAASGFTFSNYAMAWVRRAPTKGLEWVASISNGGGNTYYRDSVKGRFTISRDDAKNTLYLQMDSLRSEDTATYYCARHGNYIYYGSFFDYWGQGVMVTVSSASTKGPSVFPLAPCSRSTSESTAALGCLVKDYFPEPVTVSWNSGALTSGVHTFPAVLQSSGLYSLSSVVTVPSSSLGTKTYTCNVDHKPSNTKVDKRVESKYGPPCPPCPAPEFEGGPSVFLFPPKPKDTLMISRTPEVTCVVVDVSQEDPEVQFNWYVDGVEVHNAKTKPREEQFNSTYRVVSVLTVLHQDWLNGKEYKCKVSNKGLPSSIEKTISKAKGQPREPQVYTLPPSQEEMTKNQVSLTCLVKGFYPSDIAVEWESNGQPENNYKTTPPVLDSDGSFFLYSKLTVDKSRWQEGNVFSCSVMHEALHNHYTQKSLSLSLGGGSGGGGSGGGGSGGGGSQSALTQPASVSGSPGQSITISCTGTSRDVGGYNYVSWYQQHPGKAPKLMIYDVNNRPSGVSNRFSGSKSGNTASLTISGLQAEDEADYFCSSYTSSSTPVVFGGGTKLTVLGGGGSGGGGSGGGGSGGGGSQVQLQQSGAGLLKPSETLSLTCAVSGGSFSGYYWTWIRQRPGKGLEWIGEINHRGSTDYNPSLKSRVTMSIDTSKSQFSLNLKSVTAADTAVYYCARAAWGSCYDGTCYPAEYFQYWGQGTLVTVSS
light: QFVLSQPNSVSTNLGSTVKLSCKRSTGNIGSNYVSWYQQHEGRSPTTMIYRDDKRPDGVPDRFSGSIDRSSDSALLTINNVQTEDEADYFCQSYSSGINIFGGGTKLTVLGQPKAAPSVTLFPPSSEELQANKATLVCLISDFYPGAVTVAWKADSSPVKAGVETTTPSKQSNNKYAASSYLSLTPEQWKSHRSYSCQVTHEGSTVEKTVAPTECS
notes: also called pCI-AVM-hLG4PE(R409K)_MOG01scFv7
B2: AVM IgG4PE(R409K)_MOG01dscFv6 antibody (bispecific antibody)
heavy: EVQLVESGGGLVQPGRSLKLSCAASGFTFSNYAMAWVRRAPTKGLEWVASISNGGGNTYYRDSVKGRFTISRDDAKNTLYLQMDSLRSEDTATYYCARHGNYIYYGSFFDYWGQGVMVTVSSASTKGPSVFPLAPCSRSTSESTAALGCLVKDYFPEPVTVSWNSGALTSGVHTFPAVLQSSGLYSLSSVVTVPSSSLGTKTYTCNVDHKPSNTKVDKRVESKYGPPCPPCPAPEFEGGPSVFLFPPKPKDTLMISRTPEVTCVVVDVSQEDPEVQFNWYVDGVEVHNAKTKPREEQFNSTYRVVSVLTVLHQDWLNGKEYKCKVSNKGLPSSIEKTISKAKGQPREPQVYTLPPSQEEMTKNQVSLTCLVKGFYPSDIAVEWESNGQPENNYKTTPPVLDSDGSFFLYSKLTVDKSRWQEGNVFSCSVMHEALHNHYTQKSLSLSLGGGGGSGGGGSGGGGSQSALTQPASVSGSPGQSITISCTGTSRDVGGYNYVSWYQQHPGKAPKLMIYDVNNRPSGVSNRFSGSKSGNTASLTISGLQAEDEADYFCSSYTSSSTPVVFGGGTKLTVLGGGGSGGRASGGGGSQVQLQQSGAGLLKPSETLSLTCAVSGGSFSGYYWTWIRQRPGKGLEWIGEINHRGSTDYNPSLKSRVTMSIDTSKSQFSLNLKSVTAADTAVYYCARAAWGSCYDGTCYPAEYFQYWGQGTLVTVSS
light: B1 light
notes: also called pCI-AVM-hLG4PE(R409K)_MOG01scFv6
B3: AVM-MOG01 IgG4PE(R409K) antibody (bispecific antibody)
heavy 1: EVQLVESGGGLVQPGRSLKLSCAASGFTFSNYAMAWVRRAPTKGLEWVASISNGGGNTYYRDSVKGRFTISRDDAKNTLYLQMDSLRSEDTATYYCARHGNYIYYGSFFDYWGQGVMVTVSSASTKGPSVFPLAPCSRSTSESTAALGCLVKDYFPEPVTVSWNSGALTSGVHTFPAVLQSSGLYSLSSVVTVPSSSLGTKTYTCNVDHKPSNTKVDKRVESKYGPPCPPCPAPEFEGGPSVFLFPPKPKDTLMISRTPEVTCVVVDVSQEDPEVQFNWYVDGVEVHNAKTKPREEQFNSTYRVVSVLTVLHQDWLNGKEYKCKVSNKGLPSSIEKTISKAKGQPREPQVYTLPPCQEEMTKNQVSLWCLVKGFYPSDIAVEWESNGQPENNYKTTPPVLDSDGSFFLYSKLTVDKSRWQEGNVFSCSVMHEALHNHYTQKSLSLSLGKDYKDDDDK
heavy 2: QVQLQQSGAGLLKPSETLSLTCAVSGGSFSGYYWTWIRQRPGKGLEWIGEINHRGSTDYNPSLKSRVTMSIDTSKSQFSLNLKSVTAADTAVYYCARAAWGSCYDGTCYPAEYFQYWGQGTLVTVSSASTKGPSVFPLAPCSRSTSESTAALGCLVKDYFPEPVTVSWNSGALTSGVHTFPAVLQSSGLYSLSSVVTVPSSSLGTKTYTCNVDHKPSNTKVDKRVESKYGPPCPPCPAPEFEGGPSVFLFPPKPKDTLMISRTPEVTCVVVDVSQEDPEVQFNWYVDGVEVHNAKTKPREEQFNSTYRVVSVLTVLHQDWLNGKEYKCKVSNKGLPSSIEKTISKAKGQPREPQVCTLPPSQEEMTKNQVSLSCAVKGFYPSDIAVEWESNGQPENNYKTTPPVLDSDGSFFLVSKLTVDKSRWQEGNVFSCSVMHEALHNHYTQKSLSLSLGKHHHHHH
light 1: B1 light
light 2: QSALTQPASVSGSPGQSITISCTGTSRDVGGYNYVSWYQQHPGKAPKLMIYDVNNRPSGVSNRFSGSKSGNTASLTISGLQAEDEADYFCSSYTSSSTPVVFGGGTKLTVLGQPKAAPSVTLFPPSSEELQANKATLVCLISDFYPGAVTVAWKADSSPVKAGVETTTPSKQSNNKYAASSYLSLTPEQWKSHRSYSCQVTHEGSTVEKTVAPTECS
notes: copies: 1 + 1 + 1 + 1
B4: AVM IgG4PE(R409K)_MOG01sscFv antibody (bispecific antibody)
heavy 1: EVQLVESGGGLVQPGRSLKLSCAASGFTFSNYAMAWVRRAPTKGLEWVASISNGGGNTYYRDSVKGRFTISRDDAKNTLYLQMDSLRSEDTATYYCARHGNYIYYGSFFDYWGQGVMVTVSSASTKGPSVFPLAPCSRSTSESTAALGCLVKDYFPEPVTVSWNSGALTSGVHTFPAVLQSSGLYSLSSVVTVPSSSLGTKTYTCNVDHKPSNTKVDKRVESKYGPPCPPCPAPEFEGGPSVFLFPPKPKDTLMISRTPEVTCVVVDVSQEDPEVQFNWYVDGVEVHNAKTKPREEQFNSTYRVVSVLTVLHQDWLNGKEYKCKVSNKGLPSSIEKTISKAKGQPREPQVYTLPPCQEEMTKNQVSLWCLVKGFYPSDIAVEWESNGQPENNYKTTPPVLDSDGSFFLYSKLTVDKSRWQEGNVFSCSVMHEALHNHYTQKSLSLSLGGGSGGGGSGGGGSGGGGSQVQLQQSGAGLLKPSETLSLTCAVSGGSFSGYYWTWIRQRPGKGLEWIGEINHRGSTDYNPSLKSRVTMSIDTSKSQFSLNLKSVTAADTAVYYCARAAWGSCYDGTCYPAEYFQYWGQGTLVTVSSGGGGSGGRASGGGGSQSALTQPASVSGSPGQSITISCTGTSRDVGGYNYVSWYQQHPGKAPKLMIYDVNNRPSGVSNRFSGSKSGNTASLTISGLQAEDEADYFCSSYTSSSTPVVFGGGTKLTVLDYKDDDDK
heavy 2: EVQLVESGGGLVQPGRSLKLSCAASGFTFSNYAMAWVRRAPTKGLEWVASISNGGGNTYYRDSVKGRFTISRDDAKNTLYLQMDSLRSEDTATYYCARHGNYIYYGSFFDYWGQGVMVTVSSASTKGPSVFPLAPCSRSTSESTAALGCLVKDYFPEPVTVSWNSGALTSGVHTFPAVLQSSGLYSLSSVVTVPSSSLGTKTYTCNVDHKPSNTKVDKRVESKYGPPCPPCPAPEFEGGPSVFLFPPKPKDTLMISRTPEVTCVVVDVSQEDPEVQFNWYVDGVEVHNAKTKPREEQFNSTYRVVSVLTVLHQDWLNGKEYKCKVSNKGLPSSIEKTISKAKGQPREPQVCTLPPSQEEMTKNQVSLSCAVKGFYPSDIAVEWESNGQPENNYKTTPPVLDSDGSFFLVSKLTVDKSRWQEGNVFSCSVMHEALHNHYTQKSLSLSLGKHHHHHH
light: B1 light
notes: copies: 1 + 1 + 2
B5: AVM IgG4PE(R409K)_MOG01dscFv10 antibody (bispecific antibody)
heavy: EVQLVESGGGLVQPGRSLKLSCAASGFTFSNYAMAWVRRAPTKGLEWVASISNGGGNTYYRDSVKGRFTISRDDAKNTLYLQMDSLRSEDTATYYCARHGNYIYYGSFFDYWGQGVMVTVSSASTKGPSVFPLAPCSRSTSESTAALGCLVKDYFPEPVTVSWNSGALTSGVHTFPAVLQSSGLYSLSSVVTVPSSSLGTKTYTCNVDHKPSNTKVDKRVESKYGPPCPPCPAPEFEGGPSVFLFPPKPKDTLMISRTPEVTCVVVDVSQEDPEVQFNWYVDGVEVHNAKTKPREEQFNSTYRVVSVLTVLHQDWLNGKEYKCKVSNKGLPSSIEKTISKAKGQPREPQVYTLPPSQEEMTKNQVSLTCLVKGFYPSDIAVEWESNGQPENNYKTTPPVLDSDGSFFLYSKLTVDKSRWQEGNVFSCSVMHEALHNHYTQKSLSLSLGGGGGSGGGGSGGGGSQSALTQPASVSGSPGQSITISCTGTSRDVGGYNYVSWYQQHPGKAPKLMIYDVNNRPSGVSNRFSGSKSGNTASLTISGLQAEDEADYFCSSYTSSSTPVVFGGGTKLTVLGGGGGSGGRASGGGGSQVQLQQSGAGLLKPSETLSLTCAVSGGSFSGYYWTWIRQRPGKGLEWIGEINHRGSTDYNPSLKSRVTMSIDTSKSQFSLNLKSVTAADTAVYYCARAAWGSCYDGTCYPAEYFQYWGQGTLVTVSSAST
light: B1 light
notes: also called AVM IgG4PE(R409K)_MOG01dscFvlO antibody; pCI-AVM-hLG4PE(R409K)_MOG01scFv10
B6: AVM IgG4PE(R409K)_AVM Fab ANTIBODY (antibody)
heavy 1: not shown
heavy 2: EVQLVESGGGLVQPGRSLKLSCAASGFTFSNYAMAWVRRAPTKGLEWVASISNGGGNTYYRDSVKGRFTISRDDAKNTLYLQMDSLRSEDTATYYCARHGNYIYYGSFFDYWGQGVMVTVSSASTKGPSVFPLAPCSRSTSESTAALGCLVKDYFPEPVTVSWNSGALTSGVHTFPAVLQSSGLYSLSSVVTVPSSSLGTKTYTCNVDHKPSNTKVDKRV
light: B1 light
B7: AVM IgG4PE(R409K)_AVMsscFv ANTIBODY (antibody)
heavy 1: EVQLVESGGGLVQPGRSLKLSCAASGFTFSNYAMAWVRRAPTKGLEWVASISNGGGNTYYRDSVKGRFTISRDDAKNTLYLQMDSLRSEDTATYYCARHGNYIYYGSFFDYWGQGVMVTVSSASTKGPSVFPLAPCSRSTSESTAALGCLVKDYFPEPVTVSWNSGALTSGVHTFPAVLQSSGLYSLSSVVTVPSSSLGTKTYTCNVDHKPSNTKVDKRVESKYGPPCPPCPAPEFEGGPSVFLFPPKPKDTLMISRTPEVTCVVVDVSQEDPEVQFNWYVDGVEVHNAKTKPREEQFNSTYRVVSVLTVLHQDWLNGKEYKCKVSNKGLPSSIEKTISKAKGQPREPQVYTLPPCQEEMTKNQVSLWCLVKGFYPSDIAVEWESNGQPENNYKTTPPVLDSDGSFFLYSKLTVDKSRWQEGNVFSCSVMHEALHNHYTQKSLSLSLGGGSGGGGSGGGGSGGGGSEVQLVESGGGLVQPGRSLKLSCAASGFTFSNYAMAWVRRAPTKGLEWVASISNGGGNTYYRDSVKGRFTISRDDAKNTLYLQMDSLRSEDTATYYCARHGNYIYYGSFFDYWGQGVMVTVSSGGGGSGGRASGGGGSQFVLSQPNSVSTNLGSTVKLSCKRSTGNIGSNYVSWYQQHEGRSPTTMIYRDDKRPDGVPDRFSGSIDRSSDSALLTINNVQTEDEADYFCQSYSSGINIFGGGTKLTVLDYKDDDDK
heavy 2: B4 heavy 2
light: B1 light
B8: AVM IgG4PE(R409K)_MOG01dscFv11 antibody (bispecific antibody)
heavy: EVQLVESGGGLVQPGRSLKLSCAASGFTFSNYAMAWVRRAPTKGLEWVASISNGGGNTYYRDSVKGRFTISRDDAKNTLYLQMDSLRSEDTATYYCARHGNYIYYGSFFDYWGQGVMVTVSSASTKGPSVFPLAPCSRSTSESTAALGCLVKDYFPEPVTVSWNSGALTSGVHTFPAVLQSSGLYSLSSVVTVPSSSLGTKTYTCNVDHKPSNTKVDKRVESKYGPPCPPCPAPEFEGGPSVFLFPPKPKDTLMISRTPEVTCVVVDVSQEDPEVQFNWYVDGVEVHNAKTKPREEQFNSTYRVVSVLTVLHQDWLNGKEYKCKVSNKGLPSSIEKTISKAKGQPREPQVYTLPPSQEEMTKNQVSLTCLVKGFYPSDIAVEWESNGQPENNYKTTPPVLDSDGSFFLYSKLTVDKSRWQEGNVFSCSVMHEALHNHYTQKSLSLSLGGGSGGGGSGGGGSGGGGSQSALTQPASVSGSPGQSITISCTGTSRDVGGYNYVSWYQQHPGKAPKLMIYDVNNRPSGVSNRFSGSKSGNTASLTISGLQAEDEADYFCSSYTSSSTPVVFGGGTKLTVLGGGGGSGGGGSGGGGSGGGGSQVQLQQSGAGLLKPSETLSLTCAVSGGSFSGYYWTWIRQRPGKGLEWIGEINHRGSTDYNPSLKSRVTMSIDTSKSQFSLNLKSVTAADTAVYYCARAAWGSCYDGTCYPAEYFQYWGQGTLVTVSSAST
light: B1 light
notes: also called pCI-AVM-hLG4PE(R409K)_MOG01scFv11
B9: AVM IgG4PE(R409K)_MOG01 Fab antibody (bispecific antibody)
heavy 1: not shown
heavy 2: QVQLQQSGAGLLKPSETLSLTCAVSGGSFSGYYWTWIRQRPGKGLEWIGEINHRGSTDYNPSLKSRVTMSIDTSKSQFSLNLKSVTAADTAVYYCARAAWGSCYDGTCYPAEYFQYWGQGTLVTVSSASTKGPSVFPLAPCSRSTSESTAALGCLVKDYFPEPVTVSWNSGALTSGVHTFPAVLQSSGLYSLSSVVTVPSSSLGTKTYTCNVDHKPSNTKVDKRV
light: B1 light

T2 sequence (chain, as listed by the source limits assumed): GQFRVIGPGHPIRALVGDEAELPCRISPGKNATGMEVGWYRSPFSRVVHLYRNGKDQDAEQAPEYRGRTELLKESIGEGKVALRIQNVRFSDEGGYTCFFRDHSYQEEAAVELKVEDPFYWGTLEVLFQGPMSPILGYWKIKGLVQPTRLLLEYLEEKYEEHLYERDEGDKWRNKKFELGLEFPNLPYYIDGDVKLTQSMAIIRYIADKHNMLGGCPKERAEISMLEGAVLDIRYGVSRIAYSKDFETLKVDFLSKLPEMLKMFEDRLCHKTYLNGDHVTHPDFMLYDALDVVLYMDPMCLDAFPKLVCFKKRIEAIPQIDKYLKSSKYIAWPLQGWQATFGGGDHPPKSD

For one test, the target named is T1, human MOG (hMOG) expressed on HEK293, …. The experiment in a line: flow cytometry, hMOG/L929 cells. From the text:
(§1) pEF6_hMOG obtained in Example 5 was introduced to mouse connective tissue-derived fibroblast L929 cells [American Type Culture Collection (ATCC) No.: CCL-1] using HilyMax (manufactured by Dojindo Laboratories). The gene-transfected cells were selected using an antibiotic substance, Blasticidin (manufactured by Invitrogen) and then cloned by the limiting dilution method. Using the L929 cells expressing hMOG on the cell surface (abbreviated as hMOG/L929 below), the reactivities of the bispecific antibodies were analyzed by the method described below.
(§2) The hMOG/L929 cells were suspended in a Staining Buffer (SB) of PBS containing 0.1% NaN₃ and 1% FBS and dispensed to a round-bottom 96-well plate (manufactured by Becton Dickinson). […] After suspending the pellets, the plate was left to stand at ice temperature for 30 minutes. The supernatants were removed after further centrifugation (2000 rpm, 4° C., two minutes), and the pellets were washed with SB. Then, 1 μg/mL RPE fluorescently labeled goat anti-human antibody (manufactured by Southern Biotech) was added, and the plate was incubated at ice temperature for 30 minutes. After washing with SB, the cells were suspended in SB, and the fluorescence intensities of the cells were measured with a flow cytometer FACS CANTO II (manufactured by Becton Dickinson). The results are shown in FIGS. 12A to 12C and FIGS. 13A and 13B.
For orientation: Flow cytometry measures light scatter and fluorescence of single cells or particles in a stream.
Take B1: the binding result is on record as “binds”.
The same measure, in the same setting: for B2 the value was “binds”.

The next test shares this target. The experiment in a line: flow cytometry on L929 cells expressing human MOG (hMOG/L929); antibody titrated, RPE-labelled goat anti-human antibody.
Source text: as §1, §2
As for B3, the binding result is “binds”.
Still for that read-out and setting: for B4 the value was “binds”.
The same measure, in the same setting: in the case of B5 it was “binds”.
Still for that read-out and setting: in the case of B6 it was “no binding”; in that of B7, “no binding”.
For the molecule B8, the binding result is “binds”.
Still for that read-out and setting: in the case of B9 it was “binds”.

A further test addresses T2, extracellular domain protein of rat MOG to which GST is added at the C-terminus (rMOG-GST) (rat).
T2 construct: whole construct entry
The experiment in a line: SPR as in Example 8 (antibody captured, rMOG-GST analyte). The method, then:
The antibodies were immobilized on CM5 sensor chips using a Human antibody Capture kit, and the binding abilities were evaluated using rMOG-GST produced in Example 4 as an analyte. The obtained sensorgrams were analyzed with BIA evaluation software, and the dissociation constants (KD values) were thus calculated.
Binding of the bispecific antibodies obtained in Example 6 and Example 16 to MOG was evaluated by the same method as that of Example 8.
With B3, binding was put at a Kd of 12 nM, the koff was found to be 0.0016 s⁻¹ and the on-rate (kon) stood at 130000 M⁻¹ s⁻¹.
In turn, B4 registered a Kd of 200 nM, a koff of 0.01 s⁻¹ and a kon of 51000 M⁻¹ s⁻¹.
The like results for B9 were, in that order, 34 nM, 0.0035 s⁻¹ and 100000 M⁻¹ s⁻¹.
